Source: publication PMC5733569, “Sbp1 modulates the translation of Pab1 mRNA in a poly(A)- and RGG-dependent manner” (RNA, 2018)
Blank lines part the entries; values can stand above or below the molecule they belong to.

How the values were obtained:
[1] = system: Sbp1RGG (Saccharomyces cerevisiae); test: EMSA; details: EMSA: native 8% PAGE in THEM buffer (34 mM Tris base, 57 mM Hepes, 0.1 mM EDTA, 2.5 mM MgCl2); binding buffer salt, pH and temperature not given in the …
[2] = system: Sbp1RRM2 (Saccharomyces cerevisiae); test: EMSA; details: EMSA: native 8% PAGE in THEM buffer (34 mM Tris base, 57 mM Hepes, 0.1 mM EDTA, 2.5 mM MgCl2); binding buffer salt, pH and temperature not given in the …
[3] = system: Sbp1 (Saccharomyces cerevisiae); test: EMSA; details: Hill coefficient 2.1 +/- 0.1; EMSA: native 8% PAGE in THEM buffer (34 mM Tris base, 57 mM Hepes, 0.1 mM EDTA, 2.5 mM MgCl2); binding buffer salt, pH and temperature not given in the …
[4] = system: Pab1 (Saccharomyces cerevisiae); test: EMSA; details: EMSA: native 8% PAGE in THEM buffer (34 mM Tris base, 57 mM Hepes, 0.1 mM EDTA, 2.5 mM MgCl2); binding buffer salt, pH and temperature not given in the …
[5] = system: Sbp1RRM1 (Saccharomyces cerevisiae); test: EMSA; details: EMSA: native 8% PAGE in THEM buffer (34 mM Tris base, 57 mM Hepes, 0.1 mM EDTA, 2.5 mM MgCl2); binding buffer salt, pH and temperature not given in the …
[6] = biological target: Pab1 (purified, as added in the IgG-pulldown and EMSA) (S. cerevisiae) (UniProt P04147)
[7] = biological target: T1, C-terminal TAP-tagged eIF4G1 (S. cerevisiae, UniProt P39935 1-952); test: pull-down; IgG-pulldown: eIF4G1-TAP with purified Pab1 and Sbp1 (or Sbp1^m) in the presence of 10x 5′UTR_Pab1 RNA; details: both partners purified
T1 construct: eIF4G1, translation initiation factor of S. cerevisiae; the TAP tag was inserted at the end of the eIF4G1 gene in its chromosome locus; also called eIF4G1-TAP; source: RNase A and 1 M KCl wash to remove endogenous RNAs
T1 sequence (looked up): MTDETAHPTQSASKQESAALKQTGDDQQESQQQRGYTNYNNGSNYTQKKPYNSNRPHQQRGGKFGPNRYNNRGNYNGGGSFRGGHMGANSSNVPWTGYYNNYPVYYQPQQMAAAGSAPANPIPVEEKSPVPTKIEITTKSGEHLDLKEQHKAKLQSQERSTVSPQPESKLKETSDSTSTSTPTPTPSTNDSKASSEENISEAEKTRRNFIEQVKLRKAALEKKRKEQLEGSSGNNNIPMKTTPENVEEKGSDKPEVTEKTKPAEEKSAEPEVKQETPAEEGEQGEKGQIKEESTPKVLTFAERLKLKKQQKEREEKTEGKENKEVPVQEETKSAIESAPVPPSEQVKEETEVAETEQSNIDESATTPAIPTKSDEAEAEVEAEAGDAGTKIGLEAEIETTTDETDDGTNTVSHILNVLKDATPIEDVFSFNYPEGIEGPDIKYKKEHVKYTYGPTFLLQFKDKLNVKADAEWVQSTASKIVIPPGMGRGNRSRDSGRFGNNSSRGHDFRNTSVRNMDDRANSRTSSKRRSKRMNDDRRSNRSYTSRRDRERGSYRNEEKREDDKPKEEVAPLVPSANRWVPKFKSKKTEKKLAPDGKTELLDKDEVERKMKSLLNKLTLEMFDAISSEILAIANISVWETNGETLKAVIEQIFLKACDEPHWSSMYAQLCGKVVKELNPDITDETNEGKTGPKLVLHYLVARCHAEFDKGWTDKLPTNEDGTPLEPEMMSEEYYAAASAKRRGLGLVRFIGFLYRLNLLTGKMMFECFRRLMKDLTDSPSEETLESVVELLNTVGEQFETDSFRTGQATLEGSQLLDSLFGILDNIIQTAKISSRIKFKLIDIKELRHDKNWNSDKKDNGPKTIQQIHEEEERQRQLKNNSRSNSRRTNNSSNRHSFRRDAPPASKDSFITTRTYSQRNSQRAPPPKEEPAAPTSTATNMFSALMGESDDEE

Molecule: 5'UTRPab1
Kd [1]: 2700 nM
Kd [2]: 900 nM
Kd [3]: 26.5 nM
Kd [4]: 31.2 nM
Kd [5]: 1100 nM

cap-dependent translation initiation activity of the 5′UTR Pab1 luciferase reporter in yeast cell extract with an increasing amount of Sbp1 [6]: 20 to 60 % decrease
B1: Sbp1 (natural protein)
chain: MSAEIEEATNAVNNLSINDSEQQPRAPTHKTVIDPEDTIFIGNVAHECTEDDLKQLFVEEFGDEVSVEIPIKEHTDGHIPASKHALVKFPTKIDFDNIKENYDTKVVKDREIHIKRARTPGQMQRGGFRGRGGFRGRGGFRGGFRGGYRGGFRGRGNFRGRGGARGGFNGQKREKIPLDQMERSKDTLYINNVPFKATKEEVAEFFGTDADSISLPMRKMRDQHTGRIFTSDSANRGMAFVTFSGENVDIEAKAEEFKGKVFGDRELTVDVAVIRPENDEEEIEQETGSEEKQE

binding result [7]: binds
B2: Pab1 (purified, as added in the IgG-pulldown and EMSA) (natural protein, S. cerevisiae, UniProt P04147 1-577, looked up)
chain: MADITDKTAEQLENLNIQDDQKQAATGSESQSVENSSASLYVGDLEPSVSEAHLYDIFSPIGSVSSIRVCRDAITKTSLGYAYVNFNDHEAGRKAIEQLNYTPIKGRLCRIMWSQRDPSLRKKGSGNIFIKNLHPDIDNKALYDTFSVFGDILSSKIATDENGKSKGFGFVHFEEEGAAKEAIDALNGMLLNGQEIYVAPHLSRKERDSQLEETKAHYTNLYVKNINSETTDEQFQELFAKFGPIVSASLEKDADGKLKGFGFVNYEKHEDAVKAVEALNDSELNGEKLYVGRAQKKNERMHVLKKQYEAYRLEKMAKYQGVNLFVKNLDDSVDDEKLEEEFAPYGTITSAKVMRTENGKSKGFGFVCFSTPEEATKAITEKNQQIVAGKPLYVAIAQRKDVRRSQLAQQIQARNQMRYQQATAAAAAAAAGMPGQFMPPMFYGVMPPRGVPFNGPNPQQMNPMGGMPKNGMPPQFRNGPVYGVPPQGGFPRNANDNNQFYQQKQRQALGEQLYKKVSAKTSNEEAAGKITGMILDLPPQEVFPLLESDELFEQHYKEASAAYESFKKEQEQQTEQA
notes: it may be the same molecule as m1
